# B1: ESR1 promoter POU2F1 element probe (-56 to -42) (dsDNA)
# DNA 1: GCTATGGCCTATGCATATGAAGCCTTTATT
# DNA 2: AATAAAGGCTTCATATGCATAGGCCATAGC
# Biological target: POU2F1 (OCT-1) POU DNA-binding domain, wild type (Homo sapiens, UniProt P14859 280-438)
# Assay: EMSA; dose-dependent, saturation at ~0.8 uM protein; EMSA: 20 mM HEPES pH 7.9, 2 mM MgCl2, 10% glycerol, 2 mM DTT, 36 ng poly(dI-dC), 20 min room temperature; 5% native gel, 0.5x TBE, 4 C
# Details: protein: recombinant; tags: GST fusion, thrombin-cleaved when indicated (state in EMSA not explicit); label: 5'-32P; blunt
# POU2F1 (OCT-1) POU DNA-binding domain, wild type, sequence (P14859 280-438): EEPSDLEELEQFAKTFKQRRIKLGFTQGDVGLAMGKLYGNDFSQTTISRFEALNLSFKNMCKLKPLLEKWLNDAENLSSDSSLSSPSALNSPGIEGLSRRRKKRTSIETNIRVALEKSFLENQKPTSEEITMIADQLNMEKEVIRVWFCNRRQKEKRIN
binder,measurement,value
B1,binding result,binds

# — PMC13280575, “The PER2:BRCA1:POU2F1(OCT-1) ternary complex represents a multi-component scaffold model for circadian gene regulation”
